Earlier results on 2 substances are cited in PMC11727785.

The term pKd denotes −log10 of the Kd, conventionally taken in molar units.

pKd: −log10 of the molar value. Read-outs that look alike come from different tables or passages of the source.

Series [1] concerns the target IL-18 receptor complex (Homo sapiens) (UniProt Q13478).
Series [2] deals with IL-18 receptor alpha chain (Homo sapiens) (UniProt Q13478).
Series [3] has as its target IL-18 (Homo sapiens) (UniProt Q14116). Nature of the series: SPR. (In SPR one partner is held on a chip, and binding of the other changes the refractive index at the surface.)
Series [4] has the same target.

Chain of IL-18BP (O95998 31-194): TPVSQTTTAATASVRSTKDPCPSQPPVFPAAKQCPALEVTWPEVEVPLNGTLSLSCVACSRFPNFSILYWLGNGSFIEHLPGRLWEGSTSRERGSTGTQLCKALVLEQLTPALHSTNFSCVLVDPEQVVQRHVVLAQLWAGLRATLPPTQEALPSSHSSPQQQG
Chain of IL-18 (Homo sapiens) (Q14116 37-193): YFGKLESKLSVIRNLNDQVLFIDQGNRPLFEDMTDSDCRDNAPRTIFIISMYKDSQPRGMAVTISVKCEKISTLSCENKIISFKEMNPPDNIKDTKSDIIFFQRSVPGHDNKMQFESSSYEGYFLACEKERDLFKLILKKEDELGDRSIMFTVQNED
Chain of IL-18 (Q14116 37-193): as above
Chain of IL-18 receptor complex (Homo sapiens) (Q13478 19-541, chain 1 of 2): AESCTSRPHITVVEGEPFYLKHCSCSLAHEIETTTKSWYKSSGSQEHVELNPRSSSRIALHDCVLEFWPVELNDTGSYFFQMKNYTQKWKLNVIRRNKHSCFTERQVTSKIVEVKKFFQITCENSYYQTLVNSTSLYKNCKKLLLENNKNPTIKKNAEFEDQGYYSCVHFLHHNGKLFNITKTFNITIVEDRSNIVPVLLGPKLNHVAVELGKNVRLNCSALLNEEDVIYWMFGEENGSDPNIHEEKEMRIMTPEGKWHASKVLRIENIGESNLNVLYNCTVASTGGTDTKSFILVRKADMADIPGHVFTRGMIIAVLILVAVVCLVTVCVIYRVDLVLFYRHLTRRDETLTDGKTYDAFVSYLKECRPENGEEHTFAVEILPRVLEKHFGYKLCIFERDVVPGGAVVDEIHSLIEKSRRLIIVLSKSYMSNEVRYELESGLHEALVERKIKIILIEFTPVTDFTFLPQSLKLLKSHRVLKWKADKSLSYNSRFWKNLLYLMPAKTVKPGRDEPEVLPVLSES
Chain of IL-18 receptor complex (Homo sapiens) (O95256 20-599, chain 2 of 2, further chain): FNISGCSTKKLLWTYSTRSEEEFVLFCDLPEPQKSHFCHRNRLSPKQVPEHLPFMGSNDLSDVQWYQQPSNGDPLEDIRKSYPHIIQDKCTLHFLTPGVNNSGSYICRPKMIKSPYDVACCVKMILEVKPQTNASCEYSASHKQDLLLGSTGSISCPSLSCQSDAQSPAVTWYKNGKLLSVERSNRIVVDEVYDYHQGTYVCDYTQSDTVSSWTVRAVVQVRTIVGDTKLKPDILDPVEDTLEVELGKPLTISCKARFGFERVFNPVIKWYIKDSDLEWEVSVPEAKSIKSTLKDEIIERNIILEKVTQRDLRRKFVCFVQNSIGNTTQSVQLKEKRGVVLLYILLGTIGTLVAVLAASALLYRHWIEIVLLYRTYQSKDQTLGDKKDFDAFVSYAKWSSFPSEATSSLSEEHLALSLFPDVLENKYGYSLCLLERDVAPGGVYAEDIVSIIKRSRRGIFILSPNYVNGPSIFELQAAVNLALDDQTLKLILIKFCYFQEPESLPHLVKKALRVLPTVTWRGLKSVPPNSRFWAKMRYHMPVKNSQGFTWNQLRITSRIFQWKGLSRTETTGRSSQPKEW
Chain of IL-18 receptor alpha chain (Homo sapiens) (Q13478 19-541): as the sequence (Q13478 19-541, chain 1 of 2) above

With IL-18 (from UniProt Q14116), the pKd in series [1] is 9.40; in series [2] it was 7.73.
Consider IL-18BP (from UniProt O95998), for which the pKd in the series with IL-18 (Homo sapiens) [3] is 9.40; with IL-18 (Homo sapiens) [4], 10.30.
